T1: Tau-derived peptide Tau401-418, not phosphorylated (T4.6) (human)
T1 construct: it is called the non-phosphorylated version of the same peptide as T4.5 (Tau401-418); also called corresponding non-phosphorylated Tau peptide
T1 peptide: GDTSPRHLSNVSSTGSID


Experiments:
[1] = biological target: T1, Tau-derived peptide Tau401-418, not …; test: direct ELISA on plate-coated peptide (10 ug/mL), AP-conjugated anti-human IgG, O.D. at 405 nm
Method: Binding of hACl-36-2B6-Ab1 and hACl-36-3A8-Ab1 to T4 Peptides by ELISA 1.1. Method 1.1.1 Phospho-Tau Binding Assay To test the binding of the antibody to pTau, an ELISA assay was used. Nunc MaxiSorp 96-well plates (Nunc, Denmark) were coated with 10 µg/mL of the Tau-derived peptide Tau401-418, phosphorylated (T4.5) or not (T4.6) on serine 409. Coating was done overnight in phosphate-buffered saline (PBS; Sigma-Aldrich, Switzerland) at 4° C. Plates were washed thoroughly with 0.05% Tween20/PBS and then blocked with 1% bovine serum albumin (BSA; Sigma-Aldrich) in 0.05% Tween20/PBS for 1 hr at 37° C. The supernatant containing the antibody being tested was then added in 8 two-fold dilutions, starting at 0.5 µg/mL, and incubated for 2 hr at 37° C. Plates were then washed as described previously, and an alkaline phosphatase (AP) conjugated goat anti-human IgG (Jackson ImmunoResearch Laboratories, England) was added at 1/2,000 dilution in 0.05% Tween20/PBS for 2 hr at 37° C. After washing, plates were incubated with p-nitrophenyl phosphate disodium hexahydrate (pNPP; Sigma-Aldrich, Switzerland) phosphatase substrate solution, and read at 405 nm following 1 hr incubation using a microplate reader (Tecan, Switzerland). Results are expressed as optical density (O.D.). […]

[2] = biological target: Tau-derived peptide Tau401-418, phosphorylated (T4.5) (human); test: SPR (Biacore T100), antibody captured via Protein G on CM7 chip, peptide T4.5 as analyte 50-800 nM, single-cycle kinetics, 1:1 Langmuir fit
Sequence of Tau-derived peptide Tau401-418, phosphorylated (T4.5) (human) (peptide, as listed by the source): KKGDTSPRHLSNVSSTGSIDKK

| binding result [1] | Kd [2] | koff [2] | kon [2] | Binder |
| --- | --- | --- | --- | --- |
| no binding (tested: 0.5 ug/mL) | 67 nM | 0.0036 s⁻¹ | 54000 M⁻¹ s⁻¹ | humanized antibody hACl-36-2B6-Ab1 (IgG4) (antibody, V domains shown, Humanized IgG4, kappa; also called 2B6A10C11) VH: QVQLVQSGAEVKKPGSSVKVSCKASGYTFTDYYMNWVRQAPGQGLEWIGDINPNRGGTTYNQKFKGRVTITVDKSTSTAYMELSSLRSEDTAVYYCASYYAVGYWGQGTTVTVSS VL: DIVMTQTPLSLPVTPGEPASISCRSSQSLVHSHGKTYLHWYLQKPGQSPQLLIYKVSNRFSGVPDRFSGSGSGTDFTLKISRVEAEDVGVYFCSQTAHFPYTFGGGTKVEIKR |
| no binding (tested: 0.5 ug/mL) | – | – | – | humanized antibody hACl-36-3A8-Ab1 (IgG4) (antibody, V domains shown, Humanized IgG4, kappa; Tested as a supernatant containing the antibody; also called 3A8A12G7) VH: QVQLVQSGAEVKKPGSSVKVSCKASGYTFTDYYMNWVRQAPGQGLEWIGDINPNRGGTTYNQKFKGRVTITVDKSTSTAYMELSSLRSEDTAVYYCASYYAVGYWGQGTTVTVSS VL: DIVMTQTPLSLPVTPGEPASISCRSSQRLVHSHGKTYLHWYLQKPGQSPQLLIYKVSNRFSGVPDRFSGSGSGTDFTLKISRVEAEDVGVYFCSQTAHFPYTFGGGTKVEIKR |

From patent publication US9657091 (AC IMMUNE S A, dated 2017)
